Measurements as given in the supplement of paper PMC12042874.
± gives the uncertainty stated by the source.

Experiment: amyloid nucleation score (Sup35N fusion, yeast selection) (log enrichment); library NNK1; higher = more nucleation; inactive = no reads after selection
Method in brief: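 Plasmid inserts were Illumina-sequenced at input and output from psi-negative yeast expressing Sup35N fused to peptides of 20 random codons. The yeast were induced with 100 μM copper sulfate for 24 hours and grown 7 days at 30°C on medium lacking adenine and uracil, and sequences with under 100 input reads were excluded. Nucleation score is the DiMSum log enrichment of output over input reads, centred on the mode score of non-aggregating sequences.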

Substance	amyloid nucleation score
SIRMGSEVRSDNEMVMRWQM	3.67 ± 0.16
LHLPHLRIRTNYSGLILSVM	-0.513 ± 0.56
TCLCD	1.52 ± 0.46
GFSEKQNY	0.383 ± 0.54
PCINRFHGIGFHCRLWTVYV	0.816 ± 0.98
LWFQLLMLEFSRNKPIQTVG	-0.138 ± 0.64
RGRSIDVPRE	-0.004 ± 0.53
HCMLGMFHWVRRQVYRSTKW	2.34 ± 0.25
LCQGEKISPVKQHHVYCLGE	0.649 ± 0.85
WVFEPMEWFDYKFSYHF	-0.255 ± 0.42
AGLITSDDMAYWIGILFCNL	2.57 ± 0.14
VVDMTVGFENARCGMREVWT	-0.328 ± 1.3
TIFIAMDFNRVGKLFYRN	5.368 ± 0.05
DKRYGDEVRHTGRWSRSVVW	0.013 ± 0.42
ASIYMLRFMDLT	-0.244 ± 0.71
WHEHSYLENSIYITRIKINV	3.18 ± 0.15
VITVSGSEGEIEWSS	-1.64 ± 2.7
MLHWLKLIRTIGRFIRFFRC	inactive
YMYEMGICFELDDTHEG	0.608 ± 0.55
INLLVPFQNESVLELNATEW	0.772 ± 0.51
KYLACILCSKLLTQSNSRNI	7.687 ± 0.058
LVGSKSGVTRQRMALRWGGF	-0.285 ± 1.4
DNINKLSWTRSILELG	-0.452 ± 0.62
SSDGVSMLC	0.33 ± 0.47
AISAYELSRIRVQS	0.487 ± 0.55

Substance	amyloid nucleation score
TTPEAFNSLFAIRGGLLPQR	-0.415 ± 0.47
TGLYSYIGFSDGYCVYEMIT	-0.122 ± 1.6
PAVFCW	0.387 ± 0.48
NGRTLINQYESLEATGICTV	0.684 ± 0.78
IVMCEAYFK	inactive
DEWCVG	0.017 ± 0.82
WDRASYIEYRSFIEWRRLPK	-0.006 ± 0.55
FCNLYVEWFLGDNVKVTRYR	3.58 ± 0.095
QKSYMCRVGYPF	0.501 ± 0.72
WFPCVADINICPLGLYHSEG	8.033 ± 0.062
WVGLSFDDIKIYSASSN	0.308 ± 0.52
GFVSAKLIPCAVLQKGLLPV	0.313 ± 0.51
FLFAMFNSISMKSAKLKWNR	3.91 ± 0.086
RYYVSSLRPVRRQSRKDGCG	-0.414 ± 0.63
MVFLGCSGLVCERCAGWLAR	5.58 ± 0.11
YIPTCAGDWLQFNYYNLMCW	0.149 ± 0.38
FLMGSYMFTTTVQISHDLMW	-0.354 ± 0.61
EAGNTDSAINGVRAKDGS	1.15 ± 0.69
THFTTYYYWSQWGLWLSFCQ	0.596 ± 0.31
SRYGWGTRSESRQLTSLSCT	-0.304 ± 1.3
PWITCCKVNGIFLTDRCRVV	0.574 ± 0.3
MLVDIGRC	-1.31 ± 1.6
TCLRACVHLVNYGVDMFSDK	1.83 ± 0.32
HRITSFVYYFGLSSEFYIYP	0.009 ± 1.1
YKMYWISVAVLKRYNLLHQS	-0.111 ± 0.44

Substance	amyloid nucleation score
TIMFLVITIPRFHNDLMVLS	-0.79 ± 0.37
ACGRLFDYVAFHRLLDQTHW	-0.617 ± 0.65
LSCDVQWLCLESNCE	3.96 ± 0.07
RCMMQYKFTWGIVTYRKDLG	0.658 ± 0.34
GTYRRQKMELMYSSLGLFGC	-0.634 ± 0.56
QNFWALGPIRRIYFVNVITN	7.315 ± 0.06
SSSADLAATARLFAGWEVLY	0.045 ± 0.74
NFCDSSGI	-0.912 ± 1.2
WTRIDSSVYARKGFCAPRLP	0.021 ± 1.1
SAIMEVLRMDDTCLWSNWVM	0.057 ± 0.37
IINERSANLYDFVVIDRSWL	-1.04 ± 0.69
NHALYDIWLIALSSRLYCQN	0.342 ± 0.4
SWRNVLKSGASRNKVDRSSL	-0.22 ± 1.1
PSQHSIPLLTQVYVLL	5.54 ± 0.059
PSCILMNLEVYND	0.827 ± 0.42
FCTCSLKQVM	inactive
ISYMHKLCLFSFYLDHKLTL	-1.49 ± 1.4
FISVGAFGYTMILNVFN	5.445 ± 0.051
YSSGKELTGLLDKKFIIGLD	-0.186 ± 0.39
ILLICYGSCAPNNMVSASTD	-0.959 ± 0.84
IRHNTRRSSIRTET	0.086 ± 0.49
LMRRGGCVYVGFFWELVCFQ	-0.524 ± 0.83
YMVHMK	0.121 ± 0.76
RDIWMATYRWVRVYSLMWIG	1.01 ± 0.48
WNELCHQLNWCICRVAGFVK	-0.637 ± 0.62

Substance	amyloid nucleation score
AGSGMLSKLVLLSRKSMVIT	1.92 ± 0.21
DWGKSSPLLKVLLMQSRLPC	-0.073 ± 0.45
HVHRIN	-0.717 ± 1.1
YLVTGVGYGGCNIRLWE	0.355 ± 0.83
NMLSLSRAAWKRN	inactive
MDGFERWGSYVTWSQLVMIR	-0.837 ± 0.98
VNLFLVMKFK	6.676 ± 0.043
AWGRLAGYRRGSWMYYCCNS	0.435 ± 0.82
AKGCNMWI	2.3 ± 0.32
RSVSRRGYVGAFPSQVWLGL	0.214 ± 0.77
EINESRLYYNSLQAFAFMWA	-0.823 ± 0.57
NTLCLHDFFHGLILWLSHQA	1.01 ± 0.49
HRCQSSSRRPMNGFGTCQRS	0.321 ± 0.34
ESAERGVRGSGRGRMNGGMM	-0.778 ± 0.98
LCKDLAKHHN	4.97 ± 0.056
ECSGVNLNTSYLPGVQEATM	0.715 ± 0.2
MTSYGSFRKATWNDWISNMS	-0.393 ± 0.41
MRVVPHVWLTWHEATVVLQV	0.807 ± 0.28
QKSVWKSITGRASFYSSLVR	inactive
SVGTDY	-0.465 ± 1.6
LHQSVMRWLAASWCPQIKLG	0.338 ± 0.97
TYLRPWPFTVLLIWRRYSCL	0.244 ± 0.81
SDMLK	0.324 ± 0.43
PEDFHNLFLKINGYLSYAFV	-1.54 ± 1.1
PALWWSMYSIQCPEEIGGAV	0.405 ± 0.55

Substance	amyloid nucleation score
DIPVSHGAYL	-0.378 ± 0.84
ILMHSIAVFTRGIGRIRLAS	0.913 ± 0.68
ERITIFVSVRTGKLRYLWPT	-0.837 ± 2.4
YTEIMGL	-0.046 ± 0.31
YASCCTDCNWLCFFRRLREA	7.041 ± 0.054
WYHFVSGAVPHGSNEPKEFN	-1 ± 0.9
MLLEFCKCGVGSIVWCQKFA	4.94 ± 0.11
WVYHRQKSCAIFRAEIM	-0.088 ± 0.48
AESLWQFTWQVTKPHEEGSE	4.35 ± 0.068
FCCCNRLYQGRELWVKLVNR	4.94 ± 0.06
AECLDPMNAVTVCRGSWL	0.101 ± 0.35
FLCLI	-2.52 ± 2.7
LTYLNMALVCRFFYVFRHDW	0.799 ± 0.57
SWVSAVIHRYGV	1.31 ± 0.15
LAPMDLCGGSVAFR	0.47 ± 0.4
PTRCQVWLGGTLHVRVVDLS	-0.424 ± 0.4
WMRKVIPTNGTVDIETSS	0.438 ± 0.33
DPYMNWIVLYSGVRHWNGVM	0.056 ± 1.4
GSKRT	0.316 ± 0.42
AWNCHKFND	0.668 ± 0.78
LCGEGRFLQTWRSLSFP	-0.865 ± 0.39
LLVVRNLEGNNIHALVLCVG	1.91 ± 0.21
NSCQNPSEGF	-0.376 ± 1.2
VRNMVFSSGRQLYMWDKLLK	1.82 ± 0.66
RVEKCWAMTDKCIRHRFLTS	0.774 ± 0.48

Substance	amyloid nucleation score
MRFVIQVLYTGGTKKSSHLM	1.16 ± 0.79
YWAIVW	-0.128 ± 0.39
DHFPARKVGCTILTCMMQKL	0.697 ± 0.63
VEQLFGLAMRDLA	-0.448 ± 0.8
KTASLRRVG	-0.071 ± 0.32
YYNNLRVSSYQSKFPIMAMF	inactive
CIYELRGLVRFWSHRVNRER	-0.445 ± 0.45
PSFRWIGSEMSTMFMLQVTL	0.058 ± 0.55
LSHGSIQMVYPELR	-0.829 ± 1.6
PYLTICKIDYFYYLGRDSFF	4.47 ± 0.055
RLGTSAMRCQP	0.038 ± 0.78
TKLVLWLVA	-0.429 ± 0.71
QVYYVCGYTSDKLLKNSYNN	-0.125 ± 0.45
MNNCKGTI	-0.679 ± 0.79
YVRMACMLGLHSRYWMHRVV	-0.267 ± 0.6
SVMNGVGPQWLVLTYLPVSR	-0.38 ± 1.5
SSRLKL	1 ± 0.25
RNIVRFCNRSFRILLRGSAT	inactive
KCLIYGKFIVRCVPINV	-0.088 ± 0.59
NSCWRTGLQVPVSQHYNQTI	-0.492 ± 0.61
WVCLNYYWGCVRRTTRVFCL	-0.198 ± 0.52
LHSSMNCRWIHTL	0.618 ± 0.47
PDSCIENLDMWYTFNGDNDT	-0.828 ± 0.3
AYFMGHCLKGPRVTLVGCKT	0.525 ± 0.65
RLNVILGLTSTLNYSSVMPR	3.67 ± 0.17

Substance	amyloid nucleation score
GKNWVRPRPGLVTNTKEYES	-0.46 ± 0.76
LHSPDFDLYYVLRILACDTQ	-0.866 ± 1.7
CRLKSMMVRNSWSVCSSGWG	0.32 ± 0.5
WVRGSYPPDAHR	1.86 ± 0.29
CGFALSRQVDILILLADSYD	0.167 ± 1.1
SSCVIRKCKHERQRWMS	inactive
DGICNW	2.61 ± 0.12
LSSIATRKHELLNFPV	0.294 ± 0.63
AKGYTEMVKYHRVSTTMVFM	inactive
DKISWLSHQLRWDSRMSNLE	1.1 ± 0.66
DTLEVTFGYYDCYGMYKTIT	-1.18 ± 1.7
LDINDTMYETNCFG	-0.488 ± 0.58
NSWKNADVWCNASMHGWSGW	0.697 ± 0.72
GSTENTVYRRGEFGELVWKC	-0.311 ± 0.44
SWRLMIRYVDTPNSWNFSTM	-0.183 ± 0.67
SATASNGRMAGSVSSWRKRW	0.219 ± 0.36
LLRMIKICYDLRSNLDSWRS	-0.529 ± 1.7
VADCPCLGLVNTLAETMNVC	0.243 ± 0.6
KLIFKRSFNRMDLSSLCYFR	-0.471 ± 0.39
HLYGVR	0.267 ± 0.84
